# Target: NLGN-1ΔAB-Fc (neuroligin-1 lacking splice inserts A and B, residues Q46-S693, with a C-terminal Fc domain) (UniProt Q62765)
# Assay: SPR
substance,measurement,value
"β-NRXN-1 (ΔSS#4), soluble recombinant (domain or fragment)",Kd,30 nM
